Test results reported in patent publication US20250326839A1 (VIGIL NEUROSCIENCE, published 2025).

T1: human TREM2 (human, UniProt Q9NZC2 19-174, limits assumed)
T1 construct: also called triggering receptor expressed on myeloid cells 2
T1 sequence: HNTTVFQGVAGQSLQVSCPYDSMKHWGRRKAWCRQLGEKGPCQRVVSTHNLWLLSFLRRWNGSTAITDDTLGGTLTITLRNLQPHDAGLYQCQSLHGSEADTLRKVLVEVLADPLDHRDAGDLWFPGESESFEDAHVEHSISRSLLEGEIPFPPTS


Key:
human TREM2 [1] = target: T1, human TREM2; assay: 1st screen, 10 nM Ab
human TREM2 [2] = target: T1, human TREM2; assay: 2nd screen, 2 nM
human TREM2 [3] = target: T1, human TREM2; assay: 2nd screen, 10 nM

| Binder | Binding Signal (human TREM2 [1]) | Binding Signal (human TREM2 [2]) | Binding Signal (human TREM2 [3]) |
| --- | --- | --- | --- |
| V49 (antibody, V domains shown, also called 6E7 variant V49; LV-106/HV-106) VH: EVQLVQSGAEVKKPGESLKISCKGSGYSFNSYWIAWVRQMPGKGLEWMGTIYPGDSDTRLSPSFQGQVTISADKSISTAYLQWSSLKASDTAMYFCARSRTFYYDSSDYFDYWGQGTLVTVSS VL: DIQMTQSPSSVSASVGDRVTITCRASQGISSWLAWYQQKPGKAPKLLIYAASSRQNGVPSRFSGSGSGTDFTLTISSLQPEDFATYFCQQADSYPRTFGQGTKLEIK | 6.51 fold over 6E7 parental antibody | 5.02 fold over 6E7 parental antibody | 6.58 fold over 6E7 parental antibody |
| V63 (antibody, V domains shown, also called 6E7 variant V63) VH: EVQLVQSGAEVKKPGESLKISCKGSGYSFRSYWIAWVRQMPGKGLEWMGIIYPGDSDTRYSPSFQGQVTISADKSISTAYLQWSSLKASDTAMYFCARSRTFYYDSSDYFDYWGQGTLVTVSS VL: DIQMTQSPSSVSASVGDRVTITCRASQGISSWLAWYQQKPGKAPKLLIYAASSLQRGVPSRFSGSGSGTDFTLTISSLQPEDFATYFCQQADRFPRTFGQGTKLEIK | 3.76 fold over 6E7 parental antibody | 4.91 fold over 6E7 parental antibody | 3.71 fold over 6E7 parental antibody |
| V76 (antibody, V domains shown, also called 6E7 variant V76; LV-109/HV-110) VH: EVQLVQSGAEVKKPGESLKISCKGSGYSFGSYWIAWVRQMPGKGLEWMGIIYPGDSDTRYSPEFQGQVTISADKSISTAYLQWSSLKASDTAMYFCARQRTFYYDSSDYSDYWGQGTLVTVSS VL: DIQMTQSPSSVSASVGDRVTITCRASQGISSWLAWYQQKPGKAPKLLIYAASSLQKGVPSRFSGSGSGRDFTLTISSLQPEDFATYFCQQADSFPRTFGQGTKLEIK | 4.57 fold over 6E7 parental antibody | 4.34 fold over 6E7 parental antibody | 4.93 fold over 6E7 parental antibody |
| V53 (antibody, V domains shown, also called 6E7 variant V53) VH: EVQLVQSGAEVKKPGESLKISCKGSGYSFTSYWIAWVRQMPGKGLEWMGIIYPGDSDTRYSPHFQGQVTISADKSISTAYLQWSSLKASDTAMYFCARQRTFYYDSSDYFDYWGQGTLVTVSS VL: DIQMTQSPSSVSASVGDRVTITCRASQGISSWLAWYQQKPGKAPKLLIYAASSLQNGVPSRFSGSGSGTDFTLTISSLQPEDFATYFCQQADSFPRTFGQGTKLEIK | 1.25 fold over 6E7 parental antibody | 0.66 fold over 6E7 parental antibody | 1.17 fold over 6E7 parental antibody |
| V72 (antibody, V domains shown, also called 6E7 variant V72) VH: EVQLVQSGAEVKKPGESLKISCKGSGYSFTSYWIGWVRQMPGKGLEWMGIIYPGDSDTRYSPSFQGQVTISADKSISTAYLQWSSLKASDTAMYFCARGRTFYYDSSDYFDYWGQGTLVTVSS VL: DIQMTQSPSSVSASVGDRVTITCRASQGISSWLAWYQQKPGKAPKLLIYAASSLVNGVPSRFSGSGSGTDFTLTISSLQPEDFATYFCQQADSYPRTFGQGTKLEIK | 3.64 fold over 6E7 parental antibody | 2.5 fold over 6E7 parental antibody | 4.01 fold over 6E7 parental antibody |
| V77 (antibody, V domains shown, also called 6E7 variant V77) VH: EVQLVQSGAEVKKPGESLKISCKGSGYSFTSYWIAWVRQMPGKGLEWMGIIYPGDSDTRYSPSFQGQVTISADKSISTAYLQWSSLKASDTAMYFCARQRTFYYDSSDYFDYWGQGTLVTVSS VL: DIQMTQSPSSVSASVGDRVTITCRASQGISSWLAWYQQKPGKAPKLLIYAASSRQNGVPSRFSGSGSGTDFTLTISSLQPEDFATYFCQQADSFPRTFGQGTKLEIK | 1.43 fold over 6E7 parental antibody | 0.83 fold over 6E7 parental antibody | 1.38 fold over 6E7 parental antibody |
| V51 (antibody, V domains shown, also called 6E7 variant V51) VH: EVQLVQSGAEVKKPGESLKISCKGSGYSFTSYWIAWVRQMPGKGLEWMGIIYPGDSDVRYSPSFQGQVTISADKSISTAYLQWSSLKASDTAMYFCARGRTFYYDSSDYFDNWGQGTLVTVSS VL: DIQMTQSPSSVSASVGDRVTITCRASQGISSWLAWYQQKPGKAPKLLIYAASSRQNGVPSRFSGSGSGTDFTLTISSLQPEDFATYFCQQADSFPRTFGQGTKLEIK | 2.81 fold over 6E7 parental antibody | 1.83 fold over 6E7 parental antibody | 3.18 fold over 6E7 parental antibody |
| V52 (antibody, V domains shown, also called 6E7 variant V52; LV-107/HV-107) VH: EVQLVQSGAEVKKPGESLKISCKGSGYSFESYWIAWVRQMPGKGLEWMGIIYPGDSDTRYSPSFQGQVTISADKSISTAYLQWSSLKASDTAMYFCARGRTFYYDSSDYFDYWGQGTLVTVSS VL: DIQMTQSPSSVSASVGDRVTITCRASQGISSWLAWYQQKPGKAPKLLIYAASSLQRGVPSRFSGSGSGTDFTLTISSLQPEDFATYFCQQADRFPRTFGQGTKLEIK | 3 fold over 6E7 parental antibody | 1.78 fold over 6E7 parental antibody | 3.09 fold over 6E7 parental antibody |
| V65 (antibody, V domains shown, also called 6E7 variant V65) VH: EVQLVQSGAEVKKPGESLKISCKGSGYSFTSYWIAWVRQMPGKGLEWMGIIYPGDSDTRYSPSFQGQVTISADKSISTAYLQWSSLKASDTAMYFCARSRTFYYDSSDYFDYWGQGTLVTVSS VL: DIQMTQSPSSVSASVGDRVTITCRASQGISSWLAWYQQKPGKAPKLLIYAASSLQNGVPSRFSGSGSGTDFTLTISSLQPEDFATYFCQQADSFPRTFGQGTKLEIK | 2.05 fold over 6E7 parental antibody | 1.29 fold over 6E7 parental antibody | 2.75 fold over 6E7 parental antibody |
| V84 (antibody, V domains shown, also called 6E7 variant V84) VH: EVQLVQSGAEVKKPGESLKISCKGSGYGFTSYWIAWVRQMPGKGLEWMGIIYPGDSDTRYSPSFQGQVTISADKSISTAYLQWSSLKASDTAMYFCARQRTFYYDSSDYSDYWGQGTLVTVSS VL: DIQMTQSPSSVSASVGDRVTITCRASQGISSWLAWYQQKPGKAPKLLIYGASSLQNGVPSRFSGSGSGTDFTLTISSLQPEDFATYFCQQADSFPRTFGQGTKLEIK | 1.44 fold over 6E7 parental antibody | 1.45 fold over 6E7 parental antibody | 1.62 fold over 6E7 parental antibody |
| V60 (antibody, V domains shown, also called 6E7 variant V60; LV-108/HV-108) VH: EVQLVQSGAEVKKPGESLKISCKGSGYHFTSYWIAWVRQMPGKGLEWMGIIYPGDSDVRYSPSFQGQVTISADKSISTAYLQWSSLKASDTAMYFCARQRTFYYDSSDYSDYWGQGTLVTVSS VL: DIQMTQSPSSVSASVGDRVTITCRASQGISSWLAWYQQKPGKAPKLLIYAASSLQRGVPSRFSGSGSGTDFTLTISSLQPEDFATYFCGQADSFPRTFGQGTKLEIK | 3.26 fold over 6E7 parental antibody | 3.35 fold over 6E7 parental antibody | 3.63 fold over 6E7 parental antibody |
| V64 (antibody, V domains shown, also called 6E7 variant V64) VH: EVQLVQSGAEVKKPGESLKISCKGSGYSFQSYWIAWVRQMPGKGLEWMGIIYPGDSDTRYSPSFQGQVTISADKSISTAYLQWSSLKASDTAMYFCARGRTFYYDSSDYFDYWGQGTLVTVSS VL: DIQMTQSPSSVSASVGDRVTITCRASQGISSWLAWYQQKPGKAPKLLIYAASSLANGVPSRFSGSGSGTDFTLTISSLQPEDFATYFCQQADSYPRTFGQGTKLEIK | 5.41 fold over 6E7 parental antibody | 4.88 fold over 6E7 parental antibody | 5.48 fold over 6E7 parental antibody |

Other lines, results leading:

| Binding Signal (human TREM2 [1]) | Binding Signal (human TREM2 [2]) | Binding Signal (human TREM2 [3]) | Binder |
| --- | --- | --- | --- |
| 4.64 fold over 6E7 parental antibody | 3.74 fold over 6E7 parental antibody | 4.52 fold over 6E7 parental antibody | V75 (antibody, V domains shown, also called 6E7 variant V75) VH: EVQLVQSGAEVKKPGESLKISCKGSGYSFTSYWIAWVRQMPGKGLEWMGIIYPGDSDTRYSPSFQGQVTISADKSISTAYLQWSSLKASDTAMYFCARGRTFYYDSSDYFDYWGQGTLVTVSS VL: DIQMTQSPSSVSASVGDRVTITCRASQGISSWLAWYQQKPGKAPKLLIYAASSLQAGVPSRFSGSGSGTDFTLTISSLQPEDFATYFCQQADSYPRTFGQGTKLEIK |
| 2.49 fold over 6E7 parental antibody | 1.87 fold over 6E7 parental antibody | 2.89 fold over 6E7 parental antibody | V62 (antibody, V domains shown, also called 6E7 variant V62) VH: EVQLVQSGAEVKKPGESLKISCKGSGYSFGSYWIAWVRQMPGKGLEWMGIIYPGDSDTRYAPSFQGQVTISADKSISTAYLQWSSLKASDTAMYFCARQRTFYYDSSGYFDYWGQGTLVTVSS VL: DIQMTQSPSSVSASVGDRVTITCRASQGISSWLAWYQQKPGKAPKLLIYAASSLQRGVPSRFSGSGSGTDFTLTISSLQPEDFATYFCGQADSFPRTFGQGTKLEIK |
| 5.12 fold over 6E7 parental antibody | 4.17 fold over 6E7 parental antibody | 5.44 fold over 6E7 parental antibody | V73 (antibody, V domains shown, also called 6E7 variant V73; LV-106/HV-109) VH: EVQLVQSGAEVKKPGESLKISCKGSGYSFGSYWIAWVRQMPGKGLEWMGIIYPGDSDTRYSPGFQGQVTISADKSISTAYLQWSSLKASDTAMYFCARGRTFYYDSSDYFDYWGQGTLVTVSS VL: DIQMTQSPSSVSASVGDRVTITCRASQGISSWLAWYQQKPGKAPKLLIYAASSRQNGVPSRFSGSGSGTDFTLTISSLQPEDFATYFCQQADSYPRTFGQGTKLEIK |
| 3.94 fold over 6E7 parental antibody | 2.54 fold over 6E7 parental antibody | 4.01 fold over 6E7 parental antibody | V74 (antibody, V domains shown, also called 6E7 variant V74) VH: EVQLVQSGAEVKKPGESLKISCKGSGYSFASYWIAWVRQMPGKGLEWMGIIYPGDSDVRYSPSFQGQVTISADKSISTAYLQWSSLKASDTAMYFCARGRTFYYDSSDYFDYWGQGTLVTVSS VL: DIQMTQSPSSVSASVGDRVTITCRASQGISSWLAWYQQKPGKAPKLLIYAASSLQLGVPSRFSGSGSGTDFTLTISSLQPEDFATYFCQQADSFPRTFGQGTKLEIK |
| 5.08 fold over 6E7 parental antibody | 3.63 fold over 6E7 parental antibody | 5.22 fold over 6E7 parental antibody | V61 (antibody, V domains shown, also called 6E7 variant V61) VH: EVQLVQSGAEVKKPGESLKISCKGSGYSFSSYWIAWVRQMPGKGLEWMGIIYPGDSDTRYNPSFQGQVTISADKSISTAYLQWSSLKASDTAMYFCARGRTFYYDSSDYFDYWGQGTLVTVSS VL: DIQMTQSPSSVSASVGDRVTITCRASQGISSWLAWYQQKPGKAPKLLIYAASSLVNGVPSRFSGSGSGTDFTLTISSLQPEDFATYFCQQADSLPRTFGQGTKLEIK |
| 4.1 fold over 6E7 parental antibody | 3.39 fold over 6E7 parental antibody | 4.16 fold over 6E7 parental antibody | V50 (antibody, V domains shown, also called 6E7 variant V50) VH: EVQLVQSGAEVKKPGESLKISCKGSGYSFGSYWIAWVRQMPGKGLEWMGVIYPGDSDTRYSPSFQGQVTISADKSISTAYLQWSSLKASDTAMYFCARQRTFYYDSSDYLDYWGQGTLVTVSS VL: DIQMTQSPSSVSASVGDRVTITCRASQGISSWLAWYQQKPGKAPKLLIYAASSRQNGVPSRFSGSGSGTDFTLTISSLQPEDFATYFCQQADSLPRTFGQGTKLEIK |
